{"source": "paper PMC9292820", "about": "(British Journal of Clinical Pharmacology, 2021)", "origin": "cited, not measured here", "key": {"angiotensin II (Ang‐II)": {"tested_on": "angiotensin II (Ang‐II)", "conditions": "rats, bolus injection"}, "[1]": {"tested_on": "healthy male participants"}}}
{"substance": "opiorphin (QRFSR; Opiorphin; UniProt Q99935 22-26, looked up)", "values": [{"measurement": "levels of angiotensin II (Ang‐II)", "setting": "angiotensin II (Ang‐II)", "result": "increased levels"}]}
{"substance": "buprenorphine", "values": [{"measurement": "decrease in pupil/iris ratio (miosis)", "setting": "[1]", "result": "up to 50%"}]}
